The results in this text go back to the array DNA melting data of Ke et al..

This series in a line: melting temperature; melt of duplexes. The following applies: sodium 0.0675 M; strand 1 µM.
The Tm is the temperature at the midpoint of the melting transition. On to “CGACGTGCTTAATGTGCTG+CAGCACATTTCGCACGTCG ((((((((..(((((((((+)))))))))..))))))))”, for which the Tm is 51 °C.
Take “CGACGTGCTTTATGTGCTG+CAGCACATTCAGCACGTCG (((((((((..((((((((+))))))))..)))))))))”: the Tm worked out at 50.5 °C.
For “CGACGTGCTCTATGTGCTG+CAGCACATTACGCACGTCG ((((((((...((((((((+))))))))...))))))))”, the Tm was determined as 47.8 °C.
As for “CGACGTGCGATATGTGCTG+CAGCACATAGCGCACGTCG (((((((((.(((((((((+))))))))).)))))))))”, the Tm came out at 61.3 °C.
“CGACGTGCGGAATGTGCTG+CAGCACATGGAGCACGTCG ((((((((...((((((((+))))))))...))))))))”: the midpoint of thermal melting (Tm) turned out to be 62.8 °C.
The value for “CGACGTGCTATATGTGCTG+CAGCACATATTGCACGTCG ((((((((.((((((((((+)))))))))).))))))))” was 56 °C.
As to “CGACGTGCACAATGTGCTG+CAGCACATAGAGCACGTCG ((((((((.(.((((((((+)))))))).).))))))))”, the Tm was found to be 48.4 °C.
The result for “CGACGTGCGCAATGTGCTG+CAGCACATTCGGCACGTCG ((((((((..(((((((((+)))))))))..))))))))” reads 52.5 °C.
The result for “CGACGTGCTTGATGTGCTG+CAGCACATTGGGCACGTCG ((((((((...((((((((+))))))))...))))))))” reads 50.7 °C.
The value for “CGACGTGCTCGATGTGCTG+CAGCACATCTGGCACGTCG ((((((((..(((((((((+)))))))))..))))))))” was 54.3 °C.
As to “CGACGTGCTTGATGTGCTG+CAGCACATGACGCACGTCG ((((((((.(.((((((((+)))))))).).))))))))”, the Tm was 46.5 °C.
The value for “CGACGTGCTACATGTGCTG+CAGCACATGCTGCACGTCG ((((((((..(((((((((+)))))))))..))))))))” was 52.8 °C; that for “CGACGTGCCTCATGTGCTG+CAGCACATGTTGCACGTCG ((((((((..(((((((((+)))))))))..))))))))” was 52.3 °C; that for “CGACGTGCAACATGTGCTG+CAGCACATTAAGCACGTCG ((((((((...((((((((+))))))))...))))))))” was 49.2 °C.
The result for “CGACGTGCGACATGTGCTG+CAGCACATCTCGCACGTCG ((((((((((.((((((((+)))))))).))))))))))” reads 55.4 °C; that for “CGACGTGCTTGATGTGCTG+CAGCACATAAGGCACGTCG ((((((((.(.((((((((+)))))))).).))))))))”, 52.3 °C; that for “CGACGTGCATGATGTGCTG+CAGCACATGACGCACGTCG ((((((((.(.((((((((+)))))))).).))))))))”, 46.2 °C.
With “CGACGTGCTAGATGTGCTG+CAGCACATTCAGCACGTCG (((((((((..((((((((+))))))))..)))))))))”, the Tm came to 52.8 °C.
Consider “CGACGTGCGGCATGTGCTG+CAGCACATCGAGCACGTCG ((((((((...((((((((+))))))))...))))))))”, for which the melting temperature (Tm) came out at 53.6 °C.
The result for “CGACGTGCGATATGTGCTG+CAGCACATATCGCACGTCG (((((((((((((((((((+)))))))))))))))))))” reads 64.1 °C.
The value for “CGACGTGCAGGATGTGCTG+CAGCACATCCGGCACGTCG ((((((((.((((((((((+)))))))))).))))))))” was 62.2 °C; that for “CGACGTGCTTCATGTGCTG+CAGCACATTTGGCACGTCG ((((((((...((((((((+))))))))...))))))))” was 48.6 °C.
The value for “CGACGTGCTATATGTGCTG+CAGCACATGTCGCACGTCG ((((((((.(.((((((((+)))))))).).))))))))” was 51.4 °C; that for “CGACGTGCCACATGTGCTG+CAGCACATAGTGCACGTCG ((((((((...((((((((+))))))))...))))))))” was 46.9 °C; that for “CGACGTGCTACATGTGCTG+CAGCACATACTGCACGTCG ((((((((...((((((((+))))))))...))))))))” was 49.3 °C.
In the case of “CGACGTGCTCTATGTGCTG+CAGCACATCGCGCACGTCG ((((((((.(.((((((((+)))))))).).))))))))”, the Tm was 48.3 °C.
The result for “CGACGTGCATAATGTGCTG+CAGCACATGCTGCACGTCG (((((((((..((((((((+))))))))..)))))))))” reads 50 °C; that for “CGACGTGCATTATGTGCTG+CAGCACATCGGGCACGTCG ((((((((...((((((((+))))))))...))))))))”, 47 °C.
The value for “CGACGTGCCTTATGTGCTG+CAGCACATGTCGCACGTCG ((((((((...((((((((+))))))))...))))))))” was 47.8 °C.
On to “CGACGTGCCGTATGTGCTG+CAGCACATGGTGCACGTCG ((((((((...((((((((+))))))))...))))))))”, for which the Tm was found to be 46.6 °C.
For the substance “CGACGTGCGAGATGTGCTG+CAGCACATTATGCACGTCG ((((((((...((((((((+))))))))...))))))))”, the Tm came out at 51.6 °C.
The result for “CGACGTGCAAGATGTGCTG+CAGCACATCCCGCACGTCG ((((((((..(((((((((+)))))))))..))))))))” reads 52.9 °C; that for “CGACGTGCGCAATGTGCTG+CAGCACATTGTGCACGTCG ((((((((.((((((((((+)))))))))).))))))))”, 59.9 °C.
Take “CGACGTGCAATATGTGCTG+CAGCACATCAGGCACGTCG ((((((((...((((((((+))))))))...))))))))”: the Tm stood at 48.7 °C.
The value for “CGACGTGCCCAATGTGCTG+CAGCACATCAAGCACGTCG ((((((((...((((((((+))))))))...))))))))” was 48.9 °C.
The value for “CGACGTGCTCTATGTGCTG+CAGCACATATTGCACGTCG ((((((((..(((((((((+)))))))))..))))))))” was 50.9 °C; that for “CGACGTGCAGAATGTGCTG+CAGCACATAGGGCACGTCG ((((((((...((((((((+))))))))...))))))))” was 49.2 °C.
The value for “CGACGTGCGCTATGTGCTG+CAGCACATAGCGCACGTCG (((((((((((((((((((+)))))))))))))))))))” was 66.4 °C.
“CGACGTGCAACATGTGCTG+CAGCACATAACGCACGTCG ((((((((...((((((((+))))))))...))))))))”: the Tm turned out to be 48.2 °C.
On to “CGACGTGCCACATGTGCTG+CAGCACATAAAGCACGTCG ((((((((...((((((((+))))))))...))))))))”, for which the Tm amounted to 49.1 °C.
As to “CGACGTGCATCATGTGCTG+CAGCACATGTGGCACGTCG ((((((((..(((((((((+)))))))))..))))))))”, the Tm was determined as 55 °C.
The result for “CGACGTGCGCGATGTGCTG+CAGCACATTGCGCACGTCG ((((((((((.((((((((+)))))))).))))))))))” reads 63.5 °C; that for “CGACGTGCACCATGTGCTG+CAGCACATGCGGCACGTCG ((((((((..(((((((((+)))))))))..))))))))”, 50.4 °C; that for “CGACGTGCGCCATGTGCTG+CAGCACATCAGGCACGTCG ((((((((...((((((((+))))))))...))))))))”, 47.8 °C.
The result for “CGACGTGCATAATGTGCTG+CAGCACATAAGGCACGTCG ((((((((.(.((((((((+)))))))).).))))))))” reads 51.3 °C.
Consider “CGACGTGCGAAATGTGCTG+CAGCACATGGAGCACGTCG ((((((((...((((((((+))))))))...))))))))”, for which the Tm is 60.7 °C.
The result for “CGACGTGCATCATGTGCTG+CAGCACATGGTGCACGTCG (((((((((.(((((((((+))))))))).)))))))))” reads 60.1 °C; that for “CGACGTGCGACATGTGCTG+CAGCACATAACGCACGTCG (((((((((..((((((((+))))))))..)))))))))”, 54.2 °C; that for “CGACGTGCTCCATGTGCTG+CAGCACATAAAGCACGTCG (((((((((..((((((((+))))))))..)))))))))”, 50.9 °C.
The result for “CGACGTGCGGAATGTGCTG+CAGCACATTTTGCACGTCG ((((((((..(((((((((+)))))))))..))))))))” reads 55.2 °C; that for “CGACGTGCCGGATGTGCTG+CAGCACATTCCGCACGTCG ((((((((.(.((((((((+)))))))).).))))))))”, 54 °C; that for “CGACGTGCGCAATGTGCTG+CAGCACATCACGCACGTCG (((((((((..((((((((+))))))))..)))))))))”, 54 °C.
Consider “CGACGTGCGGAATGTGCTG+CAGCACATCCTGCACGTCG ((((((((.(.((((((((+)))))))).).))))))))”, for which the Tm is 55.2 °C.
The result for “CGACGTGCGTAATGTGCTG+CAGCACATCCTGCACGTCG ((((((((...((((((((+))))))))...))))))))” reads 49.7 °C.
As to “CGACGTGCACGATGTGCTG+CAGCACATGAGGCACGTCG ((((((((...((((((((+))))))))...))))))))”, the midpoint of thermal melting (Tm) was 48.4 °C.
Regarding “CGACGTGCGAAATGTGCTG+CAGCACATACCGCACGTCG (((((((((..((((((((+))))))))..)))))))))”, the Tm is 53.9 °C.
Consider “CGACGTGCCTGATGTGCTG+CAGCACATGGAGCACGTCG ((((((((...((((((((+))))))))...))))))))”, for which the Tm worked out at 51.6 °C.
The result for “CGACGTGCGATATGTGCTG+CAGCACATGAAGCACGTCG ((((((((...((((((((+))))))))...))))))))” reads 56.1 °C; that for “CGACGTGCTAGATGTGCTG+CAGCACATAATGCACGTCG ((((((((...((((((((+))))))))...))))))))”, 50.6 °C; that for “CGACGTGCCGCATGTGCTG+CAGCACATAACGCACGTCG ((((((((...((((((((+))))))))...))))))))”, 48.3 °C.
The result for “CGACGTGCATCATGTGCTG+CAGCACATAGCGCACGTCG ((((((((...((((((((+))))))))...))))))))” reads 48.2 °C; that for “CGACGTGCAACATGTGCTG+CAGCACATCAAGCACGTCG ((((((((...((((((((+))))))))...))))))))”, 47.1 °C.
The value for “CGACGTGCGGAATGTGCTG+CAGCACATAAGGCACGTCG ((((((((...((((((((+))))))))...))))))))” was 51.5 °C.
As for “CGACGTGCGCCATGTGCTG+CAGCACATAAAGCACGTCG ((((((((...((((((((+))))))))...))))))))”, the Tm was 53.6 °C.
The value for “CGACGTGCACTATGTGCTG+CAGCACATGTTGCACGTCG (((((((((..((((((((+))))))))..)))))))))” was 48.9 °C; that for “CGACGTGCGGCATGTGCTG+CAGCACATCCAGCACGTCG ((((((((.(.((((((((+)))))))).).))))))))” was 53.9 °C.
